The target of the experiment is DNA polymerase β polymerase domain with the V303M mutation (UniProt P06766 88-335, V303M, [methyl-13C]methionine labelled). Kind of experiment: NMR.

Consider one molecule from PMC5588702 (Structure (London, England : 1993), 2014).

B1: oxidized form of the XRCC1 N-terminal domain, XRCC1(1-155), containing the C12-C20 disulfide bond (domain or fragment, human, UniProt P18887 2-155, looked up)
chain: PEIRLRHVVSCSSQDSTHCAENLLKADTYRKWRAAKAGEKTISVVLQLEKEEQIHSVDIGNDGSAFVEVLVGSSAGGAGEQDYEVLLVTSSFMSPSESRSGSNPNRVRMFGPDKLVRAAAEKRWDRVKIVCSQPYSKDSPFGLSFVRFHSPPDK
modifications: Cys12-Cys20 disulfide bond; N-terminal carbimate (CO2) adduct on Pro2; U-[15N] labelled
As for B1, the “ratio KD(pol β•X1NTDred)/KD(pol β•X1NTDox)” value was determined as 25.2.
